Values quoted from earlier work, collected in article PMC10601247.
pKd: −log10 of the molar value.

Assays:
[1] = target: flotillin-1 (Homo sapiens) (UniProt O75955); experiment: SPR
[2] = target: flotillin-2 (Homo sapiens) (UniProt Q14254); experiment: SPR
Chain of UniProt Q14254 (Q14254 2-428): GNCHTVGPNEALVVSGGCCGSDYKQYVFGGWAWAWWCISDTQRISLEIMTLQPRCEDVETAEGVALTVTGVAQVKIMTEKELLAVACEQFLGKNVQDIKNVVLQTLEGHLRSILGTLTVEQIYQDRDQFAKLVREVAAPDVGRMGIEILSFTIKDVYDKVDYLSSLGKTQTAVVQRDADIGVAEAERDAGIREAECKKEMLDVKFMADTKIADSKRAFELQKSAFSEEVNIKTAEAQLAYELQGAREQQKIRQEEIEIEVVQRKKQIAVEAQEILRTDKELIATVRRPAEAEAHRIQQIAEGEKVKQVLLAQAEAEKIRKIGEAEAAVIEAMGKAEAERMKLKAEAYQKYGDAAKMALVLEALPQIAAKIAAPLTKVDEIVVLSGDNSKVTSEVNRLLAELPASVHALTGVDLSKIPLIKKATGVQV

Chain of UniProt O75955 (O75955 whole entry): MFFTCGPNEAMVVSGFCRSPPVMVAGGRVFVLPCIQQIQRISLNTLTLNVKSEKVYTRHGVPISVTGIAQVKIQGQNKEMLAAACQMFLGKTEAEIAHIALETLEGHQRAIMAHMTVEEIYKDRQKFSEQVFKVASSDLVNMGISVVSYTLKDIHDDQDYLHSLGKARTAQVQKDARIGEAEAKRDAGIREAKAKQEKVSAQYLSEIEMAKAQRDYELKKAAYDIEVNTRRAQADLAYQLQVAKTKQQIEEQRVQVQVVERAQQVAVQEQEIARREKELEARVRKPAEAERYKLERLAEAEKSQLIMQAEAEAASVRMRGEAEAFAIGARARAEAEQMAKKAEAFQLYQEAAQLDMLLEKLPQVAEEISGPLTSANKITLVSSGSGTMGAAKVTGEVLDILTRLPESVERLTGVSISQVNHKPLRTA

- pKd [1]: 7.64
- pKd [2]: 7.51
Substance: MPP1 (from UniProt Q00013)
